Here are results for one molecule from PMC9256704 (2022).

For the experiment, the target named is T1, recombinant TRIB2 protein (TP301210, OriGene), biotinylated (human, UniProt Q92519 1-343, biotinylated).
T1 chain: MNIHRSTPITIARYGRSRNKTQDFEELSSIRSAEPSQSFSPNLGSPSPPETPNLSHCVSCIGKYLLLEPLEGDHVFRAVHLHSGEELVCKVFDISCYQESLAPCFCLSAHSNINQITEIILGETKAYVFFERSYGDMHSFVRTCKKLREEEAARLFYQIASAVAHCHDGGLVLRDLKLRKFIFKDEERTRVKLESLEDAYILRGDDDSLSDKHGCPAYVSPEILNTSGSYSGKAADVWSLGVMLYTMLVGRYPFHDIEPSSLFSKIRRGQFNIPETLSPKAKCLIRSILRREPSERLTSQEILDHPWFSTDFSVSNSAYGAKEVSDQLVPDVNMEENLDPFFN
The experiment can be described thus: BLI.

B1: PKM2 (ab89364, Abcam) (natural protein)
chain: not shown
As to B1, the koff was 0.0175 s⁻¹.
